Laboratory results as given in publication PMC5473844, “Structural and Biochemical Characterization of Poly-ADP-ribose Polymerase from Trypanosoma brucei”.

Key:
TBP-NW = target: T1, TBP-NW (Trypanosoma brucei, UniProt Q0PW89 1-197); test: EMSA; FP: 10 mM HEPES pH 8, 0.1 mM TCEP, 0.1 mM EDTA, 175 mM NaCl, 25 C, 5 nM DNA (250 nM for stoichiometry); EMSA: 50 mM Tris pH 7, 0.1 mM TCEP, 0.1 mM EDTA, 5% glycerol, 100 mM NaCl, room temperature, 0.5 uM DNA; settings: protein: recombinant; tags: 6xHis-thioredoxin tag removed with TEV; blunt
T1 sequence: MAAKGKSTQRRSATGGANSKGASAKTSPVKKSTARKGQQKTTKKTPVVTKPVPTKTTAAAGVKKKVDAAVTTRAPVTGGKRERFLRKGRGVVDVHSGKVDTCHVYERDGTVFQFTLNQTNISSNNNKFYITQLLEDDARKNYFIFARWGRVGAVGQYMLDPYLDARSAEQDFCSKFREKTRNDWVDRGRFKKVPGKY

[1] = target: T2, TBP-FL (TbPARP full-length) (Trypanosoma brucei, UniProt Q0PW89 1-573); test: as above; settings: protein: recombinant; tags: 6xHis-thioredoxin tag removed with TEV; blunt
T2 sequence: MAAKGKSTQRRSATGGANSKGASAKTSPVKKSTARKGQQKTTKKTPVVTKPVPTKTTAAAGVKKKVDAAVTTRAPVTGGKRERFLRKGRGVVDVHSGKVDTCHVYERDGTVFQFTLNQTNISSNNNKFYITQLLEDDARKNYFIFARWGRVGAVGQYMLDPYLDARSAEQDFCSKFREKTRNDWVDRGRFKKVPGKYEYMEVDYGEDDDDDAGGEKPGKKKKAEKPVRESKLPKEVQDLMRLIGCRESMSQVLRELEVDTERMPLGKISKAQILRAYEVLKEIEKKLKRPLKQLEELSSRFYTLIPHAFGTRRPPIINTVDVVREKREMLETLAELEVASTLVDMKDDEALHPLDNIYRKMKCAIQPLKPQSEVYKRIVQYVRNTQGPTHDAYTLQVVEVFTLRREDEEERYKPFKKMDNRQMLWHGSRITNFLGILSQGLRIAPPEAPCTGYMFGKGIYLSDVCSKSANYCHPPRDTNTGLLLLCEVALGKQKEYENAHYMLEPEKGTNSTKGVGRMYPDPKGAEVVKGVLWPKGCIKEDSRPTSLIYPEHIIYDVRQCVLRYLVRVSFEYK

TBP-N = target: T3, TBP-N (Trypanosoma brucei, UniProt Q0PW89 1-100); test: as above; settings: protein: recombinant; tags: 6xHis tag removed with TEV; blunt
T3 sequence: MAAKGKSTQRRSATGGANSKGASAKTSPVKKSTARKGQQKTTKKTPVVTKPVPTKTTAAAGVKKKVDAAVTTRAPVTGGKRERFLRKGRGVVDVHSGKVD

[2] = target: T2, TBP-FL (TbPARP full-length); test: EMSA; higher protein needed for full supershift; FP: 10 mM HEPES pH 8, 0.1 mM TCEP, 0.1 mM EDTA, 175 mM NaCl, 25 C, 5 nM DNA (250 nM for stoichiometry); EMSA: 50 mM Tris pH 7, 0.1 mM TCEP, 0.1 mM EDTA, 5% glycerol, 100 mM NaCl, room temperature, 0.5 uM DNA; settings: protein: recombinant; tags: 6xHis-thioredoxin tag removed with TEV; 3' overhang 4 nt (TCGA) on strand 1, other end blunt
[3] = target: T2, TBP-FL (TbPARP full-length); test: fluorescence polarization (stoichiometry); 50 mM NaCl; non-specific, no clear inflection; FP: 10 mM HEPES pH 8, 0.1 mM TCEP, 0.1 mM EDTA, 175 mM NaCl, 25 C, 5 nM DNA (250 nM for stoichiometry); EMSA: 50 mM Tris pH 7, 0.1 mM TCEP, 0.1 mM EDTA, 5% glycerol, 100 mM NaCl, room temperature, 0.5 uM DNA; settings: protein: recombinant; tags: 6xHis-thioredoxin tag removed with TEV; label: 5' FAM on strand 1; blunt
[4] = target: T2, TBP-FL (TbPARP full-length); test: fluorescence polarization; low nanomolar affinity (value only in figure); 1:1; FP: 10 mM HEPES pH 8, 0.1 mM TCEP, 0.1 mM EDTA, 175 mM NaCl, 25 C, 5 nM DNA (250 nM for stoichiometry); EMSA: 50 mM Tris pH 7, 0.1 mM TCEP, 0.1 mM EDTA, 5% glycerol, 100 mM NaCl, room temperature, 0.5 uM DNA; settings: protein: recombinant; tags: 6xHis-thioredoxin tag removed with TEV; label: 5' FAM; single strand
[5] = target: T2, TBP-FL (TbPARP full-length); test: SEC-SAXS; 1:1 complex, non-activating DNA; FP: 10 mM HEPES pH 8, 0.1 mM TCEP, 0.1 mM EDTA, 175 mM NaCl, 25 C, 5 nM DNA (250 nM for stoichiometry); EMSA: 50 mM Tris pH 7, 0.1 mM TCEP, 0.1 mM EDTA, 5% glycerol, 100 mM NaCl, room temperature, 0.5 uM DNA; settings: protein: recombinant; tags: 6xHis-thioredoxin tag removed with TEV; hairpin, 28 bp stem, TTTT loop, 3' overhang 4 nt
[6] = target: T2, TBP-FL (TbPARP full-length); test: SEC-SAXS; 2:1 protein:DNA complex, activating DNA; FP: 10 mM HEPES pH 8, 0.1 mM TCEP, 0.1 mM EDTA, 175 mM NaCl, 25 C, 5 nM DNA (250 nM for stoichiometry); EMSA: 50 mM Tris pH 7, 0.1 mM TCEP, 0.1 mM EDTA, 5% glycerol, 100 mM NaCl, room temperature, 0.5 uM DNA; settings: protein: recombinant; tags: 6xHis-thioredoxin tag removed with TEV; hairpin, 28 bp stem, TTTT loop, 3' overhang 4 nt

B1: template 1 (dsDNA)
DNA 1: CCAGGACCAGGGCGCAGATCACCTTGTTCTCCA
DNA 2: TGGAGAACAAGGTGATCTGCGCCCTGGTCCTGG
binding result (TBP-NW): binds | binding result [1]: binds | binding result (TBP-N): binds

B2: template 6 (dsDNA)
DNA 1: CGCGCTAAGGCTCATGCTACACTAGAGCTCGA
DNA 2: GCTCTAGTGTAGCATGAGCCTTAGCGCG
modifications: 5' phosphate on strand 2
binding result [2]: binds

B3: template 20 (dsDNA)
DNA 1: CAGCAGGTACCTGCCCGGCGCCCAGAGAGGAATGCAACACTC
DNA 2: GAGTGTTGCATTCCTCTCTGGGCGCCGGGCAGGTACCTGCTG
binding result [3]: binds

CAGCAGGTACCTGCCCGGCGCCCAGAGAGGAATGCAACACTC (ssDNA) [template 21]
binding result [4]: binds

B4: template 14 (structured_DNA)
DNA: GCTCTAGTGTAGCATGAGCCTTAGCGCGTTTTCGCGCTAAGGCTCATGCTACACTAGAGCTCGA
binding result [5]: binds

B5: template 15 (structured_DNA)
DNA: B4 DNA
modifications: 5' phosphate
binding result [6]: binds
